The values that follow come from PMC5084153, “Structural studies on MRG701 chromodomain reveal a novel dimerization interface of MRG proteins in green plants” (Protein & Cell, 2016).

The labels stand for the following.
B1: MRG1 chromodomain (MRG1^CD, residues 28-110) (domain or fragment, Arabidopsis thaliana, UniProt Q94C32 28-110, looked up)
chain: LFSEGERVLAYHGPRVYGAKVQKVELRKKEWKYFVHYLGWNKNWDEWVSADRLLKHTEENLVKQKALDKKQGVEKGTKSGRSA
notes: MRG1 of Arabidopsis thaliana, chromodomain, residues 28-110; Homodimer by SEC-MALS; also called wild-type MRG1^CD; source: E. coli BL21 (DE3), purified (Ni HiTrap, tag removed by ULP enzyme, Superdex G75)

Several values for one entry are separate records, joined by “and”; a condition that tells them apart may be missing. Equal values may be shown once. Primed or numbered codes have the meaning given here. No end group written: not given here. Me3″ = trimethyl (trimethyl-lysine)

In series [1] the target is MRG701 chromodomain (MRG701^CD, residues 27-96) (Oryza sativa). The experiment in a line: SEC-MALS; Wyatt 015S5 (150 Å) column, 0.5 mL/min, 10 mmol/L Tris 8.0, 100 mmol/L NaCl; self-association of the chromodomain.
For a further series, the target named is T1, MRG1^CDW58A (Arabidopsis thaliana, UniProt Q94C32, W58A).
T1 construct: Arabidopsis thaliana MRG1 (residues 28–110); His-SMT3 (SUMO) from modified pET28-SMT3 (N, cleaved yes); made in house; host or cells: Escherichia coli BL21 (DE3)
It is filed as binding. The procedure: The cDNA encoding the chromodomain of Arabidopsis thaliana MRG1 (residues 28–110) and Oryza sativa MRG701 (residues 27–96) were amplified by PCR and cloned into the modified pET28-SMT3 vector. Point mutants were generated by Site-Directed Mutagenesis kit (NEB) according to the manufacturer’s instructions. The plasmid was transformed into Escherichia coli strain BL21 (DE3). The cells were cultured in LB medium with 50 μg/mL kanamycin and induced by final concentration of 0.2 mmol/L isopropyl-β-d-thiogalactopyranoside (IPTG) at 18°C for 18 h. Cells were harvested and re-suspended in 20 mmol/L Tris pH 8.0, 500 mmol/L NaCl, 25 mmol/L imidazole and then broken by cell disruptor (JNBIO). The fusion protein was purified first with Ni HiTrap column (GE healthcare) and then removed the tag by ULP enzyme. The target protein was further purified with Superdex G75 Hiload 26/60 column (GE healthcare) and then concentrated to 20 mg/mL for structural and biochemical studies.
ITC experiments were carried out at 20°C on a MicroCal iTC200. Protein and peptide were kept in an identical buffer of 20 mmol/L Tris pH 8.0, 100 mmol/L NaCl. The sample cell was filled with a 0.1–0.2-mmol/L solution of protein, and the injection syringe with 1–2 mmol/L of the titrating ligand. […] Binding isotherms were analyzed by fitting data into the one-site model using the ITC data analysis module Origin 7.0 software.

A further series addresses T2, MRG2^CDE75A (Arabidopsis thaliana, UniProt Q4V3E2, E75A).
T2 construct: the Arabidopsis MRG2 chromodomain (MRG2^CD)
The series is classed as binding. The procedure:
ITC experiments were carried out at 20°C on a MicroCal iTC200. Protein and peptide were kept in an identical buffer of 20 mmol/L Tris pH 8.0, 100 mmol/L NaCl. The sample cell was filled with a 0.1–0.2-mmol/L solution of protein, and the injection syringe with 1–2 mmol/L of the titrating ligand. Each titration consisted of 20 2-μL injections with 2 min interval. Binding isotherms were analyzed by fitting data into the one-site model using the ITC data analysis module Origin 7.0 software.

Series [2] has as its target MRG701 chromodomain mutant W56A (MRG701^CDW56A) (Oryza sativa). Briefly: ITC; MicroCal iTC200, 20°C, 20 mmol/L Tris pH 8.0, 100 mmol/L NaCl; protein 0.1-0.2 mmol/L in the cell, peptide 1-2 mmol/L in the syringe; one-site model.
Series [3] concerns the target MRG701 chromodomain (MRG701^CD, residues 27-96) (Oryza sativa). The description is as above.
Series [4] deals with the molecule itself. Briefly: SEC-MALS; Wyatt 015S5 (150 Å) column, 0.5 mL/min, 10 mmol/L Tris 8.0, 100 mmol/L NaCl; self-association of the chromodomain. On the technique in general: Size exclusion chromatography separates by hydrodynamic size, large species first.
Series [5] is described as follows: SEC-MALS analysis of oligomerization status in solution. The series is classed as physicochemical. The following applies: for oligomerization in crystal and in solution (in words): SEC-MALS and crystal structure; for Observed molar mass by SEC-MALS: Wyatt 015S5 (150 Å) column, 0.5 mL/min, 10 mmol/L Tris 8.0, 100 mmol/L NaCl, multi-angle light scattering and differential refractive index. The procedure: The absolute molar mass of target protein was determined by size exclusion chromatography coupled with multi-angel light scattering. The experiments were performed by an Agilent system connected with a Wyatt DAWN HELEOS-II multi-angle light scattering instrument and a Wyatt OptilabrEX differential refractometer. A Wyatt 015S5 (150 Å) column was used with a 100 μL sample loop at a flow rate of 0.5 mL/min in the running buffer of 10 mmol/L Tris 8.0, 100 mmol/L NaCl. The molar mass was calculated by light scattering intensity and differential refractive index using Wyatt ASTRA 6 software (Wyatt, [1993]).

Series [6] deals with B1. Briefly: ITC; MicroCal iTC200, 20°C, 20 mmol/L Tris pH 8.0, 100 mmol/L NaCl; protein 0.1-0.2 mmol/L in the cell, peptide 1-2 mmol/L in the syringe; one-site model. The following applies: both partners purified. (In general: ITC needs no label: the signal is the heat of the interaction.)
In series [7] the target is T3, MRG1 chromodomain mutant W58A (MRG1^CDW58A) (Arabidopsis thaliana, UniProt Q94C32 28-110, W58A).
T3 construct: MRG1 of Arabidopsis thaliana, chromodomain, residues 28-110, point mutant W58A; source: E. coli BL21 (DE3), purified (Ni HiTrap, tag removed by ULP enzyme, Superdex G75)
T3 sequence (looked up): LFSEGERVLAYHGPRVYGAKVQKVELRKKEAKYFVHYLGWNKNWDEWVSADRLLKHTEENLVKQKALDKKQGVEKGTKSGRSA
The description is as above. Conditions: both partners purified.

The target of series [8] is T4, MRG2 chromodomain mutant E75A (MRG2^CDE75A) (Arabidopsis, UniProt Q4V3E2 51-123, E75A).
T4 sequence: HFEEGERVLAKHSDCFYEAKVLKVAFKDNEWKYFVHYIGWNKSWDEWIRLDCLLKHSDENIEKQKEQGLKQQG
The experiment in a line: ITC.

In series [9] the target is T5, MRG2 chromodomain (MRG2^CD) (Arabidopsis, UniProt Q4V3E2 51-123).
T5 chain: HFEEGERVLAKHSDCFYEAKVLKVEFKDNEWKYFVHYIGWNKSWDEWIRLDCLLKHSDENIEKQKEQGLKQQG
Briefly: ITC.

The target of series [10] is T6, MRG1 chromodomain mutant W58A (MRG1^CDW58A) (Arabidopsis thaliana, UniProt Q94C32 28-110, W58A).
T6 sequence: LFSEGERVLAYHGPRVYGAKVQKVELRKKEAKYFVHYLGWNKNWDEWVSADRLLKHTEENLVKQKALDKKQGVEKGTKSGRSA
Briefly: ITC.

The target of series [11] is T7, MRG1 chromodomain (MRG1^CD, residues 28-110) (Arabidopsis thaliana, UniProt Q94C32 28-110).
T7 chain: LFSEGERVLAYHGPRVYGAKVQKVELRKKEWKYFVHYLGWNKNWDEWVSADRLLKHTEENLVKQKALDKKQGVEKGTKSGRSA
Briefly: ITC.

As for “MRG701 chromodomain (MRG701^CD, residues 27-96) (domain or fragment)”, the stoichiometry N (usually the number of molecules, sites or subunits per partner or assembly) in series [1] stood at 2.
`C[C@H](N)C(=O)N[C@@H](CCCNC(=N)N)C(=O)N[C@H](C(=O)N[C@@H](CCCC[N+](C)(C)C)C(=O)N[C@@H](CCC(N)=O)C(=O)N[C@H](C(=O)N[C@@H](C)C(=O)N[C@@H](CCCNC(=N)N)C(=O)N[C@@H](CCCCN)C(=O)O)[C@@H](C)O)[C@@H](C)O` [H3K4me3]: the “difference of Kd between wild-type and mutant proteins (in words)” value on MRG1^CDW58A and on MRG2^CDE75A was “only mild differences” in each case.
As to “histone H3K36me3 peptide (residues 31-41) (from UniProt P68431 32-42)”, the Kd (in general, the concentration at which binding is half-saturated) in [2] was 260 µM; in series [3], 510 µM.
Consider B1, for which the “stoichiometry N” value in series [4] amounted to 2.

B2: MRG1^CD: MRG1 chromodomain (residues 28–110), Arabidopsis thaliana (protein)
chain: LFSEGERVLAYHGPRVYGAKVQKVELRKKEWKYFVHYLGWNKNWDEWVSADRLLKHTEENLVKQKALDKKQGVEKGTKSGRSA
modifications: left off: SMT3 (from the modified vector pET28-SMT3), end not stated, cleaved
notes: MRG1 chromodomain (residues 28–110), Arabidopsis thaliana
For the molecule B2, in [5], the “oligomerization in crystal and in solution (in words)” value was “form dimers both in crystal and in solution”; the “Observed molar mass by SEC-MALS” value is 20.7 kDa and 20.67 ± 2.99 kDa.

B3: MRG1^CDW58A: point mutant of MRG1 chromodomain disrupting π-π stacking (protein)
chain: LFSEGERVLAYHGPRVYGAKVQKVELRKKEAKYFVHYLGWNKNWDEWVSADRLLKHTEENLVKQKALDKKQGVEKGTKSGRSA
modifications: left off: SMT3 (from the modified vector pET28-SMT3), end not stated, cleaved
notes: point mutant of MRG1 chromodomain disrupting π-π stacking
On to B3, for which the “Observed molar mass by SEC-MALS” value in series [5] was 13.4 kDa and 13.36 ± 1.40 kDa.

B4: histone H3K4me3 peptide (residues 1-9) (peptide, UniProt P68431 2-10, looked up)
peptide: ARTK(Me3″)QTARK
notes: histone H3, residues 1-9, trimethylated at lysine 4
For the molecule B4, the binding result in [6] and in series [7] was “binds” each time. Further, the Kd came to 250 µM in [2]; 330 µM in series [3]; 450 µM in [8]; 520 µM in [9]; 910 µM in [10]; 650 µM in series [11].

B5: MRG2 chromodomain (MRG2^CD) (domain or fragment, Arabidopsis)
chain: HFEEGERVLAKHSDCFYEAKVLKVEFKDNEWKYFVHYIGWNKSWDEWIRLDCLLKHSDENIEKQKEQGLKQQG
notes: MRG2 of Arabidopsis, chromodomain; Homodimer by SEC-MALS; also called wild-type MRG2^CD; source: purified
Consider B5, for which, in series [5], the “oligomerization in crystal and in solution (in words)” value was “form dimers both in crystal and in solution”; the “Observed molar mass by SEC-MALS” value is 20.7 kDa and 20.74 ± 3.05 kDa. In addition, the “stoichiometry N” value in [4] came to 2.

B6: MRG2^CDE75A: point mutant of MRG2 chromodomain disrupting hydrogen bonding and electrostatic interactions (protein)
chain: HFEEGERVLAKHSDCFYEAKVLKVAFKDNEWKYFVHYIGWNKSWDEWIRLDCLLKHSDENIEKQKEQGLKQQG
As for B6, the “Observed molar mass by SEC-MALS” value in [5] is 12.5 kDa and 12.47 ± 0.92 kDa.
